# Assay results from PMC1626105.
# Biological target: Elongin B, expressed in Saos-2 cells (UniProt Q15370)
# Assay: co-immunoprecipitation (IP: myc, IB: HA) with band densitometry
# Conditions: Saos-2 cells co-transfected with LANA-myc and HA-Elo.BC; parent: est. 4.0; read off a plot
# Chain of UniProt Q15370 (Q15370 whole entry): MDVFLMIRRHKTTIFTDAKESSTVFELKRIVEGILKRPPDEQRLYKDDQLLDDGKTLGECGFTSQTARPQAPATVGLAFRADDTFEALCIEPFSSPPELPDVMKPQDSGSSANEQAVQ
row,Substance,response
1,"KSHV latency-associated nuclear antigen (LANA), full length, myc-tagged C217G",0.4 RD
2,"KSHV latency-associated nuclear antigen (LANA), full length, myc-tagged L213G",0.4 RD
3,"KSHV latency-associated nuclear antigen (LANA), full length, myc-tagged L213P; C217F",1.3 RD
